Earlier results on one substance are cited in paper PMC9731471.

The data set has as its target podoplanin (Homo sapiens) (UniProt Q86YL7).

In the case of CLEC-2 (from UniProt Q9P126), the Kd – broadly, the free concentration of one partner at which half of the binding sites on the other are occupied at equilibrium, for simple one-to-one binding – is 24 µM.
